# Laboratory results: publication PMC12282945
# Where two headings read alike, the source gives them in different places.
# T1: Aca11 (Streptococcus sp. F0441)
# T1 chain: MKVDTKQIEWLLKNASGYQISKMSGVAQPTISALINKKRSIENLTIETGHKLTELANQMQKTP
# T2: AcrIIA32 (Acr-Aca13 fusion) (Streptococcus uberis NZ01)
# T2 chain: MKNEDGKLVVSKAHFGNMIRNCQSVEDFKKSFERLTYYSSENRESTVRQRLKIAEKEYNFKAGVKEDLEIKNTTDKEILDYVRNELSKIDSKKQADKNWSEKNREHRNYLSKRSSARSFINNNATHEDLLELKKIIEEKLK
# T3: A32CTD (Aca13) (Streptococcus uberis NZ01)
# T3 chain: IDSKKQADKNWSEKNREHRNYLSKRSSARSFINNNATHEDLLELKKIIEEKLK
# T4: A35-c-Aca13
# T4 chain: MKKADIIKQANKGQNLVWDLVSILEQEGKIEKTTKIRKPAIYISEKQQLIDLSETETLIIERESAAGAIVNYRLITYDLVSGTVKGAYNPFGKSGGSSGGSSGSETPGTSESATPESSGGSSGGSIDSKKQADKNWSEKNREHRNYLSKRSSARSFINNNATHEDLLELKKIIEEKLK
# T5: A35-n-Aca13
# T5 chain: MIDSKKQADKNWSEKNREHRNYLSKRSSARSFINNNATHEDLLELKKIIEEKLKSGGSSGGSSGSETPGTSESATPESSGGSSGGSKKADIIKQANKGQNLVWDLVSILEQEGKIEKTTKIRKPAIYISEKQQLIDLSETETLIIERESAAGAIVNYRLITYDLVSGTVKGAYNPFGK
# Experiments:
# Assay in all cases: EMSA
# Aca11 [1] = target: T1, Aca11
# [2] = target: T2, AcrIIA32 (Acr-Aca13 fusion)
# A32CTD (Aca13) [3] = target: T3, A32CTD (Aca13)
# A35-c-Aca13 = target: T4, A35-c-Aca13
# A35-n-Aca13 = target: T5, A35-n-Aca13
# [4] = target: T2, AcrIIA32 (Acr-Aca13 fusion)
# A32CTD (Aca13) [5] = target: T3, A32CTD (Aca13)
# Aca11 [6] = target: T1, Aca11
binder,measurement,setting,value
Aca11-s1 scIR probe (dsDNA) DNA 1: GTGTTGACAGGCGCGCCTCAATGTTATATACTATACTTGTAAGATAAATAAAACAA DNA 2: TTGTTTTATTTATCTTACAAGTATAGTATATAACATTGAGGCGCGCCTGTCAACAC,binding result,Aca11 [1],no binding
Aca13-s1 scIR2 probe (dsDNA) DNA 1: AGTTGATAAAAAGTGTTGACTTTTTAACGTACAGAGCTGTGCATATAATCATAAAGAT DNA 2: ATCTTTATGATTATATGCACAGCTCTGTACGTTAAAAAGTCAACACTTTTTATCAACT,binding result,[2],no binding
same,binding result,A32CTD (Aca13) [3],no binding
Aca13-s1 WT probe (Aca13 probe) (dsDNA) DNA 1: AGTTGATAAAAAGTGTTGACTTTTTAACGTACATGTACTATAATATAATCATAAAGAT DNA 2: ATCTTTATGATTATATTATAGTACATGTACGTTAAAAAGTCAACACTTTTTATCAACT,binding result,A35-c-Aca13,binds
same,binding result,A35-n-Aca13,binds
same,binding result,[4],binds
same,binding result,A32CTD (Aca13) [5],binds
Aca13-s1 scIR1 probe (dsDNA) DNA 1: AGTTGATCCCCCTAGTTGACTTTTTAACGTACATGTACTATAATATAATCATAAAGAT DNA 2: ATCTTTATGATTATATTATAGTACATGTACGTTAAAAAGTCAACTAGGGGGATCAACT,binding result,[4],binds
same,binding result,A32CTD (Aca13) [5],binds
Aca11-s1 IR WT probe (dsDNA) DNA 1: GTGTTGACAGTATATAACAAATGTTATATACTATACTTGTAAGATAAATAAAACAA DNA 2: TTGTTTTATTTATCTTACAAGTATAGTATATAACATTTGTTATATACTGTCAACAC,binding result,Aca11 [6],binds
